In IntAct's records for PubMed 33947832:

B1: ORF3a protein (SARS-CoV-2), P0DTC3 (parent)
chain: MDLFMRIFTIGTVTLKQGEIKDATPSDFVRATATIPIQASLPFGWLIVGVALLAVFQSASKIITLKKRWQLALSKGVHFVCNLLLLFVTVYSHLLLVAAGLEAPFLYLYALVYFLQSINFVRIIMRLWLCWKCRSKNPLLYDANYFLCWHTNCYDYCIPYNSVTSSIVITSGDGTTSPISEHDYQIGGYTEKWESGVKDCVVLHSYFTSDYYQLYSTQLSTDTGVEHVTFFIYNKIVDEPEEHVQIHTIDGSSGVVNPVMEPIYDEPTTTTSVPL
partner: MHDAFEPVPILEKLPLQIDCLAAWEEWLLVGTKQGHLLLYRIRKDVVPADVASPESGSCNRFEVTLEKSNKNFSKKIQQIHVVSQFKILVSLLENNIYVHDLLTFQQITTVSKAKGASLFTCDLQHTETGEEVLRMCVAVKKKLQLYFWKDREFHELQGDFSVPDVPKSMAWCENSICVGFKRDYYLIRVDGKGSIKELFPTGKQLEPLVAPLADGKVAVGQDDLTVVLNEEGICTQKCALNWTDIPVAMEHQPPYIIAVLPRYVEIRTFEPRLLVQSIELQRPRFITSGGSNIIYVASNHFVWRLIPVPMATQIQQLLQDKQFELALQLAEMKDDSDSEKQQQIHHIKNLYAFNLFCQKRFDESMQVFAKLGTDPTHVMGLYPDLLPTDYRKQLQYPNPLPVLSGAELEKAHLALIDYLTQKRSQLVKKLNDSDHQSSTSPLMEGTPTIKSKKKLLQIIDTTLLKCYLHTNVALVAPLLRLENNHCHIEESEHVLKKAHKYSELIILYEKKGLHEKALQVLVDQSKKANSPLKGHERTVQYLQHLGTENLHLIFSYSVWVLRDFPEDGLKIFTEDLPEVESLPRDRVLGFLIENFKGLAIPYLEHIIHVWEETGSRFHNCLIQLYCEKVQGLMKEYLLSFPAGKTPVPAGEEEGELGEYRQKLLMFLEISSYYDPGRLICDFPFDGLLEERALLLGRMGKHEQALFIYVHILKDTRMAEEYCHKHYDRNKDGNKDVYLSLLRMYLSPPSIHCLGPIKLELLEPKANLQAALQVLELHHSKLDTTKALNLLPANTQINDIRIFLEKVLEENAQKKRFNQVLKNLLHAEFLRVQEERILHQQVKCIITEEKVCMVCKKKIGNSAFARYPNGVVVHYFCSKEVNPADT

Variants of: B1
Settings: with vps39_human VPS39, Q96JC1

Variant | effect of a mutation on the interaction
Y160A | disrupting interaction strength
